Measurements published in US20220025037A1 (DRAGONFLY THERAPEUTICS, published 2022).
Each block holds one molecule with its values, some of them ahead of it.

Assays:
[1] = target: recombinant human DLL3 (ELISA coat) (human) (UniProt Q9NYJ7); experiment: ELISA on coated recombinant human DLL3, anti-mouse IgG-HRP
[2] = target: T1, human DLL3-His (human, UniProt Q9NYJ7 27-492, limits assumed); experiment: SPR (Biacore 8K), 37 C, antibody captured on anti-human Fc, human DLL3-His injected, 1:1 fit
T1 construct: also called hDLL3
T1 sequence (looked up): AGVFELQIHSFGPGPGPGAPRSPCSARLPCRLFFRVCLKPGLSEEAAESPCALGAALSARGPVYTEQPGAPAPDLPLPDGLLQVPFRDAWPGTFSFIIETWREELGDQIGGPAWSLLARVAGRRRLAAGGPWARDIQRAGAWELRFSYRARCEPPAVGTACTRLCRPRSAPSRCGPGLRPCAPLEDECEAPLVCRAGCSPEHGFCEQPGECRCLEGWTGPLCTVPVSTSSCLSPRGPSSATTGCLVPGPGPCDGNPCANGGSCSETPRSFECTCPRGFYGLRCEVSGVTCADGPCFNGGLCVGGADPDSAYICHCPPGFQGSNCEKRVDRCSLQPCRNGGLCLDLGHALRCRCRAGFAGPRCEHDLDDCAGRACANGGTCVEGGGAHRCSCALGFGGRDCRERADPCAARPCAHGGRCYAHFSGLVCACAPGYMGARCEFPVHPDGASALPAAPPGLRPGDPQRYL
Text: (§1) The kinetics of binding of different humanized variants and parental murine 5E7 antibody to human DLL3-His was studied by Surface Plasmon Resonance using a Biacore 8K instrument. Briefly, anti-hFc and anti-mFc IgG proteins were covalently immobilized onto different channels of CM5 chip to allow simultaneous analysis of human and murine antibodies. m5E7 was captured on the anti-mouse Fc channel and humanized variants were captured on the anti-human Fc channel at a desired capture level of ˜56 RU in HBS-EP+ buffer supplemented with 0.1% BSA. Three buffer blanks and human DLL3-His (analyte) at concentrations 0.411-300 nM (in three fold dilutions) were injected over the surface with captured murine or humanized 5E7 for 300 second association time and let dissociate for 600 second at a flow rate of 30 μL/min. The surfaces were subjected to regeneration with three 20-second pulses of 10 mM glycine pH 1.70 at a flow rate of 100 μL/min between every concentration of analyte. The experiment was conducted at 37° C. Data were double referenced and a 1:1 fit model was applied to the sensorgrams in the Biacore Insight Evaluation software.
(§2) The kinetic parameters of human DLL3-His binding to murine and humanized variants of 5E7 antibody variants were calculated and shown in Table 12.

[3] = target: T2, DLL3 on RPMI-8226 cells transduced to express the full-length extracellular portion of DLL3 (UniProt Q9NYJ7 27-492, limits assumed); experiment: flow cytometry on RPMI-8226 cells transduced to express DLL3, fluorophore-conjugated anti-human IgG secondary, MFI
T2 construct: extracellular domain; also called DLL3+ RPMI-8226 cells; cell surface DLL3
T2 sequence (looked up): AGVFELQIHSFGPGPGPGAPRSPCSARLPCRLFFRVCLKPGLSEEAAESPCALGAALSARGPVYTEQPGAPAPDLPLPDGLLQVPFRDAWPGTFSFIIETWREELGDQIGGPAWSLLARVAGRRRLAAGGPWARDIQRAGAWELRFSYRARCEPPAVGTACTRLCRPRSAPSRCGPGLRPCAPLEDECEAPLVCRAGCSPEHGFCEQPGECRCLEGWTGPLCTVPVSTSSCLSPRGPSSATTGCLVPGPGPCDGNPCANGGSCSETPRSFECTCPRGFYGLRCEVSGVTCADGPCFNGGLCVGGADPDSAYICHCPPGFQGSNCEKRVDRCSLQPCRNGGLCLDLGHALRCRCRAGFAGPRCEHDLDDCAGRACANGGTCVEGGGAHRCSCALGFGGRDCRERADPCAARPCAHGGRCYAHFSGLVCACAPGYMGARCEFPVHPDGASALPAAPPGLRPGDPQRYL
Experimental: To assess the binding of the mAbs to DLL3 positive cells, human myeloma cell line RPMI-8226 was transduced to express the full-length extracellular portion of DLL3. Anti-DLL3 mAbs were diluted and incubated with DLL3⁺ RPMI-8226 cells. The cells were analyzed by flow cytometry and binding of a mAb was detected using a fluorophore conjugated anti-human IgG secondary antibody.

[4] = target: T1, human DLL3-His; experiment: SPR (Biacore 8K), 37 C, antibody captured on anti-mouse Fc, human DLL3-His injected, 1:1 fit
Text: as §1, §2

[5] = target: T3, recombinant human DLL4 (human, UniProt Q9NR61 27-524, limits assumed); experiment: ELISA, plate coated with recombinant human DLL4 at 0.5 ug/ml, anti-mouse IgG-HRP/TMB, signal as % of positive control max
T3 construct: Coated on plates at 0.5 µg/ml
Experimental: To investigate the binding of anti-DLL3 antibodies to human DLL3, wells of high binding flat-bottom plates were coated with recombinant human DLL3 diluted to 0.5 μg/ml. To assess cross-reactivity of the antibodies to DLL1/DLL4, which are closely related family members to DLL3, plates were coated with recombinant human DLL1 diluted to 1 μg/ml, or human DLL4 diluted to 0.5 μg/ml. […] Binding was detected using anti-mouse IgG-HRP and 3,3′,5,5′-Tetramethylbenzidine (TMB) substrate. Signals were normalized to the corresponding positive control antibody.

T3 sequence (Q9NR61 27-524 limits assumed): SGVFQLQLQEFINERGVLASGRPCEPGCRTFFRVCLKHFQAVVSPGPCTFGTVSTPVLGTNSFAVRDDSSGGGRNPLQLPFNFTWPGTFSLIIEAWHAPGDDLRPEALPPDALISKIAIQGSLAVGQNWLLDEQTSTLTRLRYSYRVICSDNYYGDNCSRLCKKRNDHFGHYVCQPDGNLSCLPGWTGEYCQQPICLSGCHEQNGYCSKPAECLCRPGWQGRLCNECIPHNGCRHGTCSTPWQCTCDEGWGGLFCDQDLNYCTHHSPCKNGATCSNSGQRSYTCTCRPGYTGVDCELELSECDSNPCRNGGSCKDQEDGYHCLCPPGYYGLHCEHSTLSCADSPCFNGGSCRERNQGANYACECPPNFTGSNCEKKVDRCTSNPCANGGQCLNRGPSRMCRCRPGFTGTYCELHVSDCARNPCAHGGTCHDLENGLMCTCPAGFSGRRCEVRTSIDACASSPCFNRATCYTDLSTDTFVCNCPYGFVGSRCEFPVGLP

EC50 [1]: 0.1 nM
Molecule: positive control antibody for DLL3 (R&D Systems-MAB4315)

Kd [2]: 8.7 nM
EC50 (read off the curve) [3]: ~6 nM
B1: humanized anti-DLL3 antibody h5E7 (antibody, V domains shown)
VH: QVQLVQSGAEVKKPGASVKVSCKASGFNIKDDYIHWVRQAPGQGLEWMGWIDSENGDTEYASKFQGRVTITADTSANTAYMELSSLRSEDTAVYYCATSSYYSYDLFVYWGQGTLVTVSS
VL: DVQMTQSPSSLSASVGDRVTITCKSSQSLLHSNGKTYLNWLQQKPGQAPKLLLYLVSKLESGVPSRFSGSGSGTDYTLTISSLQPEDFATYYCLQTTHLYTFGQGTKLEIK
notes: also called clone h5E7

Kd [2]: 1.2 nM
B2: humanized anti-DLL3 antibody h5E7-YD-F3 (antibody, V domains shown)
VH: QVQLVQSGAEVKKPGASVKVSCKASGFNIKDDYIHWVRQAPGQGLEWMGWIDSENGDTEYASKFQGRVTITADTSANTAYMELSSLRSEDTAVYYCATSSYWSYDLLVYWGQGTLVTVSS
VL: DVQMTQSPSSLSASVGDRVTITCKSSQSLLHSNGKTYLNWLQQKPGQAPKLLLYLVSKLESGVPSRFSGSGSGTDYTLTISSLQPEDFATYYCLQTTHLYTFGQGTKLEIK
notes: also called F3 variant

Kd [2]: 3.3 nM
B3: humanized anti-DLL3 antibody h5E7-YD-C6 (antibody, V domains shown)
VH: QVQLVQSGAEVKKPGASVKVSCKASGFNIKDDYIHWVRQAPGQGLEWMGWIDSENGDTEYASKFQGRVTITADTSANTAYMELSSLRSEDTAVYYCATSEYYSYDLFVYWGQGTLVTVSS
VL: DVQMTQSPSSLSASVGDRVTITCKSSQSLLHSNGKTYLNWLQQKPGQAPKLLLYLVSKLESGVPSRFSGSGSGTDYTLTISSLQPEDFATYYCLQTTHLYTFGQGTKLEIK
notes: also called C6 variant

Kd [4]: 1.2 nM
binding result [5]: binds
B4: murine anti-DLL3 antibody clone 5E7 (antibody, V domains shown)
VH: EVQLQQSGAELVRPGASVKLSCTASGFNIKDDYIHWVKQWPEQGLEWIGWIDSENGDTEYASKFQGKATMTADTSSNTAYLQLSGLTSEDTAVYYCTTSSYYSYDLFVYWGQGTLVTVSA
VL: DVLMTQTPLTLSVPIGQPASISCKSSQSLLHSNGKTYLNWLLQRPGQSPKLLIYLVSKLESGVPDRFSGSGSGTDFTLKISRVEAEDLGVYYCLQTTHLYTFGGGTKLEIK
notes: Mouse hybridoma antibody, captured by anti-mouse Fc; also called m5E7; murine 5E7
